Laboratory results published in the supplement of paper PMC9170038.

What was measured:
MS2 coat protein [1] = assay: apparent KD of MS2 coat protein, switch ON state; designed switch direction (-1 OFF switch, 1 ON switch): -1; higher = weaker reporter binding; conditions: FMN input: 0 or 200 uM; Eterna round: R93 (includes R88 designs)
Procedure, shortened: (§1)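 Each design's apparent KD comes from the median of binding-curve fits to its normalised clusters. Those clusters carried RNA switches transcribed on-chip from Illumina sequencing clusters. SNAP-549-labelled MS2 coat protein was titrated onto them in twofold steps (0.7 or 1.5 nM to 3 µM; per step 0.8–1.5 h down to 10–20 min). Conditions were 100 mM Tris-HCl pH 7.5, 80 mM KCl, 4 mM MgCl2, without or with constant ligand.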

MS2 coat protein [2] = assay: apparent KD of MS2 coat protein, switch OFF state (with FMN for OFF switches, without FMN for ON switches); designed switch direction (-1 OFF switch, 1 ON switch): -1; higher = weaker reporter binding; conditions: FMN input: 0 or 200 uM; Eterna round: R93 (includes R88 designs)
Procedure, shortened: as §1

Sequence	apparent KD of MS2 coat protein (MS2 coat protein [1])	apparent KD of MS2 coat protein (MS2 coat protein [2])
ACCUAGUCAGGAUAUACAAACAUGUCAAAAGACGUGAAAAAACAUGAGGAUCACCCAUGUAGAAGGGACUAGGA [Mat - Exclusion 2 - JL mod - D22]	0.0205 µM	0.0197 µM
AAAAAGAGAGGAUAUACAUGAGGAUCACCCAUGUGACAUAAAAUAAAUAAAAUAAAGUGUAGAAGGCUCAAAAA [65%, Moding Exclusion3-cac2, 21]	0.0417 µM	0.104 µM
AAGAAACGAGGAUAUACAAGAAAGAAAGAAAAGAAAAGAAAACAUGAGGAUCACCCAUGUAGAAGGCGUUAGAA [EteRNA is fun!]	0.022 µM	0.0138 µM
GAAAAACAUGAGGAUCACCCAUGUAAGGAUAUGCUGAAAAACACGGAAAAAACGUGCAGCAGAAGGUACAAAAG [Mat - Exclusion 1 - Eli mod - D91]	0.0167 µM	0.131 µM
AACUGACAUGAGGAUCACCCAUGUCAGGAUAUGCUUCAUAAAAAAAAAAAAAAAUGAUGCAGAAGGGAUAUGGG [Design 33 :P Sub-opt 9]	0.018 µM	0.0343 µM
GAGGCUGAAGGAUAUACAAGGGCCUCACCGCCAAGGCGGAAACAUGAGGAUCACCCAUGUAGAAGGUCAAUAAA [Usrisore]	0.14 µM	0.103 µM
AAGAAGAGAGGAUAUACAUAAUAAAAGAAAAGAAACAAAGAACAUGAGGAUCACCCAUGUAGAAGGCUCAAGAA [Khasekhemre Neferhotep I]	0.0321 µM	0.051 µM
AAAUAGUUAGGAUAUACAUGAGGAUCACCCAUGUGCACGUAUGGAGAAUAUGGUGGUGGUAGAAGGGACUAAAA [EX2 Malc#20]	0.0555 µM	0.0947 µM
GAAAAACAUGAGGAUCACCCAUGUAAGGAUAUGCUAAAAAACACGGAAAACGUGAAUAGCAGAAGGUACAAAAG [Mat - Exclusion 1 - Eli mod - D85]	0.025 µM	0.0468 µM
AGCUAGUCAGGAUAUACGAACAUGUCAAAAGACGUGAAAUAACAUGAGGAUCACCCAUGUAGAAGGGACUAGCA [Mat - Exclusion 2 - JL-Eli mod - D52]	0.0174 µM	0.0155 µM
AGUCAUACAGGAUAUACAUGAGGAUCACCCAUGUUUAUCCUAAAAUAAAAAAACUCAUGUAGAAGGGUAUGACA [EX3 214: Super Stable 14]	0.013 µM	0.0313 µM
AAGAGGCUAGGAUAUACACAUCUGAUGACUCAACCUAAAACACAUGAGGAUCACCCAUGUAGAAGGAGCGAAAG [Qucequor]	0.0202 µM	0.017 µM
AAACCACAUGAGGAUCACCCAUGUCAGGAUAUGAACGAAAUAAAAUAAAAAUAAAAGUUCAGAAGGGACAAAAA [Mat - Exclusion 1 - Eli mod - D16]	0.0374 µM	0.0487 µM
GAAAAGUGAGGAUAUACUUUGGGAAAAGAAAAGAUGAUGUUACAUGAGGAUCACCCAUGUAGAAGGCACAAAAA [Mat - Exclusion 2 - Mod - D155]	0.0252 µM	0.0381 µM
AUAAACAGAGGAUAUACGCAAAUAAAAGAAAAUAAAGAAACACAUGAGGAUCACCCAUGUAGAAGGCUGGAAAA	0.0211 µM	0.0167 µM
AGUUGGCGAGGAUAUACAUGAGGAUCACCCAUGUGAGAGAAAAAAGUGAGAAAGAAAAGUAGAAGGCGCGGACA [Ruby 1]	0.0473 µM	0.0704 µM
GUCGUGUGAGGAUAUGGAAAGAAGAAGAAAAGGUAGAAAAACUAGAAGGCACAUGAGGAUCACCCAUGUAAGAA [JR_Exc004_Sub1709]	0.0241 µM	0.0223 µM
GAAAAACAUGAGGAUCACCCAUGUAAGGAUAUGCUAAAAAACACGGAAAACGUGAAUAGCAGAAGGUACAAAAA [Mat - Exclusion 1 - Eli mod - D86]	0.0206 µM	0.0236 µM
AAAAAACAUGAGGAUCACCCAUGUCAGGAUAUCCGAAAAAAAAAAAAAAAAAAACCUUGGAGAAGGGACAUUCC [Chica Displaced 6 - Jieux - Exclusion 1]	0.0372 µM	0.0344 µM
AGGAAACAUGAGGAUCACCCAUGUGAGGAUAUACAAAAGAAAAGAAAAGAAAGAAGAAGUAGAAGGCACAAGAA [Thesh]	0.0262 µM	0.0295 µM
AUCAUGUUAGGAUAUAAAAGAAAAGAAAAGAAAGAAAAGAAUUAGAAGGAACAUGAGGAUCACCCAUGUAAGAA [EteRNA is fun!]	0.0347 µM	0.0265 µM
AAGAAACAUGAGGAUCACCCAUGUGAGGAUAUAGAAGAAAGAAAGAAAGAAAGAAGAACUAGAAGGCACAAAGG [Aemilius Rectus]	0.0331 µM	0.0353 µM

Sequence	apparent KD of MS2 coat protein (MS2 coat protein [1])	apparent KD of MS2 coat protein (MS2 coat protein [2])
UGUUGGCGAGGAUAUACAUGAGGAUCACCCAUGUGAGAGAAAAAAGUGAGAAAGAAAAGUAGAAGGCGCUGACU [salish99-ex3-08]	0.0427 µM	0.211 µM
AACAGUACAGGAUAUACAUGAGGAUCACCCAUGUGAGAAUUAAAAGGCGUACCUAAAAGUAGAAGGGUACUGGA [JL Maslow Revisted mod 18]	0.0283 µM	0.0732 µM
AUUAAACAUGAGGAUCACCCAUGUGAGGAUAUGCAAAAAAAAUUAUAUUAAAAAAAAAGCAGAAGGCACAUAUA [coft]	0.0363 µM	0.0623 µM
AAAAAACAUGAGGAUCACCCAUGUAAGGAUAUGCUGAAAAACACGGAAAAACGUGACAGCAGAAGGUACAAAAG [Mat - Exclusion 1 - Eli mod - D93]	0.0118 µM	0.084 µM
AAGAAGUGAGGAUAUACGCGAACAAAAAAAAAAAAGAAAGCGUAGAAGGCACAUGAGGAUCACCCAUGUCAAAA [Alfred Victor Espinas]	0.0301 µM	0.0283 µM
AAGAACUGAGGAUAUACAUAAUAAAAGAAAAGAAAGAAAGAACAUGAGGAUCACCCAUGUAGAAGGCGGAAGAA [Khaneferre Sobekhotep IV]	0.0327 µM	0.0245 µM
AAGAAGUGAGGAUAUGGAAAAGAAAAGAAAAGAAAAGAAAACCAGAAGGCACAUGAGGAUCACCCAUGUAAGAA [Artabanus the Hyrcanian]	0.0295 µM	0.028 µM
CUUAUGUAAGGAUAUCAGUAGUAAAAAAAUAAAAUUACUACUGAGAAGGUACAUGAGGAUCACCCAUGUCCGGG [EX4 375: Super Stable 75]	0.0743 µM	0.0247 µM
AAACCACAUGAGGAUCACCCAUGUCAGGAUAUGCACGAAAAUAAAUAAAAAUAAAAGUGCAGAAGGGACUAAAA [66%, Wbt, 14]	0.0319 µM	0.045 µM
AGAAAACAUGAGGAUCACCCAUGUGAGGAUAUCGAUGUCCAAAAAAAAGUGCGGGACUCGAGAAGGCACUUGGA [Erbelaed]	0.0466 µM	0.0325 µM
AAGAAGCAAGGAUAUACAUGAGGAUCACCCAUGUAAAAGAAAGAAAGGGAAAAGAAAAGUAGAAGGUGCAAGAA [Titkheperure Pasebakhenniut II]	0.0452 µM	0.057 µM
AUCAUCCUAGGAUAUACAUGGAUAUACAUUCAUGUGGACCUACAUGAGGAUCACCCAUGUAGAAGGAGGAUGAA [Mat - Same state - Mayanna Mod - D139]	0.0367 µM	0.0751 µM
AAAAAGUCAGGAUAUACAAAAGUGCGAAAGCACAAAAGGAAACAUGAGGAUCACCCAUGUAGAAGGGACAAGAA [Married to this design]	0.0423 µM	0.0242 µM
CCUAUGUCAGGAUAUCAGUAGUAAAAAAAAAAAAUUACUACUGAGAAGGGACAUGAGGAUCACCCAUGUCCCUU [EX4 309: Super Stable 9]	0.0153 µM	0.0143 µM
AGAAAGUUAGGAUAUACAGAUAAAAAAACGAAAAAAAAUCUGUAGAAGGAACAUGAGGAUCACCCAUGUAAAGA [Mat - Exclusion 4 - Mayanna - D105]	0.0287 µM	0.0232 µM
AAGAAGUGAGGAUAUACAUGAGGAUCACCCAUGUAAAAGAAAGAAAGGGAAAAGAAAAGUAGAAGGCACAAGAA [Usermaatre-setpenre-meryamun Ramesses VII]	0.0365 µM	0.0677 µM
AAAAAACAUGAGGAUCACCCAUGUGAGGAUAUGCAAUAAAAAAUAAAAAUAAAACAUAGCAGAAGGCACACCAA [Amethyst 58]	0.0266 µM	0.0318 µM
AGUUGGCGAGGAUAUACAUGAGGAUCACCCAUGUGAAAUAAUGAAAAAGUAGGGAAAAGUAGAAGGCGCUGACA [73%, Moding Norbert Elias, 20]	0.0377 µM	0.143 µM
AAAGGACGAGGAUAUACAUGAGGAUCACCCAUGUAAAAAACAUAAUAAAAGAACUUAUGUAGAAGGCGUCCAAA [Meechl Ex3 2 R1 - Copy of Meechl Ex3 2 from Round 1]	0.0538 µM	0.318 µM
AAGGGACAUGAGGAUCACCCAUGUCAGGAUAUGAUGCGAAUAAAGAAAGAAUAAAGCAUCAGAAGGGACACCAA [Mat - Exclusion 1 - Eli mod - D64]	0.023 µM	0.0446 µM
AAUAAACAUGAGGAUCACCCAUGUAAGGAUAUCGAAAAAAAAAUAAACAAAAAAAAAACGAGAAGGUACAAAAA [Exclusion 1 design 2]	0.0241 µM	0.027 µM
